Experimental data published in article doi:10.1101/2025.09.05.674518 (bioRxiv, 2025).

T1: M527D MXA (Homo sapiens, UniProt P20591)
T1 chain: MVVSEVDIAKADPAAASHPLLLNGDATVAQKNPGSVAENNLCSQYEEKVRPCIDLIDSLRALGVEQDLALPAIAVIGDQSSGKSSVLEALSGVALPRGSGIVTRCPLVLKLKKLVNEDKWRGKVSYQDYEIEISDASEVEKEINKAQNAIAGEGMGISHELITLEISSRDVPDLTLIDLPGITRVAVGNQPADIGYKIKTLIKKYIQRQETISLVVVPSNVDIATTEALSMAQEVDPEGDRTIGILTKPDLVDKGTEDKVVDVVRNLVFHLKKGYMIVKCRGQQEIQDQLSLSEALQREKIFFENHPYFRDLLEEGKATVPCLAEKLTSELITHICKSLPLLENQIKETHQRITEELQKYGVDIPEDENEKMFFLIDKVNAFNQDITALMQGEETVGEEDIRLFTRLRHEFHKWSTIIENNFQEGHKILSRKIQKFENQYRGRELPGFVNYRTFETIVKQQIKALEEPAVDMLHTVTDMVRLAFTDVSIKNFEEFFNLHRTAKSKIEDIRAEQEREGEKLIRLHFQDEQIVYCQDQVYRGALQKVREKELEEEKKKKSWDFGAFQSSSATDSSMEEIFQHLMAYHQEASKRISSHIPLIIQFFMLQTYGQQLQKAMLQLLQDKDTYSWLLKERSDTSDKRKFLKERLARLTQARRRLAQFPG


Legend:
[1] = target: recombinant wild-type human MXA (Homo sapiens, UniProt P20591); test: ELISA
M527D MXA = target: T1, M527D MXA
[2] = target: wild-type human MXA (Myxovirus resistance protein A), MAPPIT bait or prey (Homo sapiens, UniProt P20591)

binding result [1]	binding result (M527D MXA)	binding result [2]	Binder
binds	–	–	VHH7, His6-tagged, purified from Pichia pastoris (VHH) VHH: QVQLQESGGGLVQAGDSLRLSCANSGRTRSAMGWFRQAPGKEREFVAAITWSGYGTYYADSVKGRFTISRDNAKNALYLRMNSLKPDDTAVYYCAARRNQYYSYSSASADYDYWGQGTQVTVSS
–	binds	binds	VHH88 (VHH) QVQLQESGGGLVQAGDSLTLSCARSGRIFNSVPMGWFRQAPGKEREIVAAISGNGVNTYYADSVKGRFAISRDSAKNTYLQMSSLKPEDTAVYYCAARVTPWDTRYYLDDYQYWGQGTQVTVSS
–	binds	binds	VHH97 (VHH) QVQLQESGGGLVQAGGSLRLSCAKSGRIFSSVPMGWFRQAPGKEREIVAAISGNGENTYYADSVKGRFTISRDNAKNTYLQMSSLKPEDTAVYYCAARVTPWDSRYYLDDYHYWGQGTQVTVSS

Continued, binder first:

Binder	binding result [1]	binding result (M527D MXA)	binding result [2]
VHH5, His6-tagged, purified from Pichia pastoris (VHH) VHH: QVQLQESGGGLVQAGDSLILSCAASGRTFSSSAMGWFRQAPGKEREFVAAITYSGISTEYADSVKGRFTISRDNPKSTLYLRMNSLKAEDTAVYYCAARRNGYYSRSHYSTDYEYWGRGTQVTVSS	binds	–	–
VHH93 (VHH) QVQLQESGGGLVQAGDSLRLSCVVSGRFLSGYAVGWFRQAPGNERDFVAAFTWIGGQTSYADSVKGRFTVSRDNAKNTLYLQMNNLKPEDTAVYYCAAKVAIVPPTTARGYDYWGQGTQVTVSS	–	binds	binds
